From patent US20220332804A1 (CSL INNOVATION, published 2022)
Where a chain is given by its changes, count along the chain named.

Assays:
Test in all cases: SPR, antibody captured, C2 as analyte;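 further: biacore SPR at 37 °C, anti-C2 mAbs captured via goat anti-human IgG on CM5 chips, double-referenced sensorgrams fit to a 1:1 kinetic or steady-state model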
human C2 L620A = molecular target: T1, human C2 L620A (human, UniProt P06681 21-752)
T1 sequence: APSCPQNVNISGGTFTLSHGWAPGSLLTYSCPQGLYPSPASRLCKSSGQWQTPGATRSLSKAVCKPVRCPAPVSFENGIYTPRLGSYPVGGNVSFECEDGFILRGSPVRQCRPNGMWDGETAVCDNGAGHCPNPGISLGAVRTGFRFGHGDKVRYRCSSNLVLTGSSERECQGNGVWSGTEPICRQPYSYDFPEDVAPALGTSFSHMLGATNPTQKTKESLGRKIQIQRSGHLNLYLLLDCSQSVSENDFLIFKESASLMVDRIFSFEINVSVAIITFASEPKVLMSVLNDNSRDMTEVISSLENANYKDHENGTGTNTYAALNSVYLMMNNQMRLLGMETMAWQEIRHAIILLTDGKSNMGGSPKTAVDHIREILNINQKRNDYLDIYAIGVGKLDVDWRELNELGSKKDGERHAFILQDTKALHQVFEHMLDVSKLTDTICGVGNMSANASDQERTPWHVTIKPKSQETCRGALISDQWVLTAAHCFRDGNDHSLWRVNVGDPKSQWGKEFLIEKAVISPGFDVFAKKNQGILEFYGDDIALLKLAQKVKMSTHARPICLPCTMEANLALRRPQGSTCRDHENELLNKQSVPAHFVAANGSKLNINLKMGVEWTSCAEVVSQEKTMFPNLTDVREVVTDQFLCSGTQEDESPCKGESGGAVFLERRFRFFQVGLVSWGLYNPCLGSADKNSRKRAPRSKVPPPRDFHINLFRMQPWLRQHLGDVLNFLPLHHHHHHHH

human C2 R688A = molecular target: T2, human C2 R688A (human, UniProt P06681 21-752)
T2 sequence: T1 sequence with A600L, R668A

human C2 N380A = molecular target: T3, human C2 N380A (human, UniProt P06681 21-752)
T3 sequence: T1 sequence with N360A, A600L

human C2 K487A = molecular target: T4, human C2 K487A (human, UniProt P06681 21-752)
T4 sequence: T1 sequence with K467A, A600L

B1: RF16-226 (antibody, human IgG4 S228P, lambda)
heavy: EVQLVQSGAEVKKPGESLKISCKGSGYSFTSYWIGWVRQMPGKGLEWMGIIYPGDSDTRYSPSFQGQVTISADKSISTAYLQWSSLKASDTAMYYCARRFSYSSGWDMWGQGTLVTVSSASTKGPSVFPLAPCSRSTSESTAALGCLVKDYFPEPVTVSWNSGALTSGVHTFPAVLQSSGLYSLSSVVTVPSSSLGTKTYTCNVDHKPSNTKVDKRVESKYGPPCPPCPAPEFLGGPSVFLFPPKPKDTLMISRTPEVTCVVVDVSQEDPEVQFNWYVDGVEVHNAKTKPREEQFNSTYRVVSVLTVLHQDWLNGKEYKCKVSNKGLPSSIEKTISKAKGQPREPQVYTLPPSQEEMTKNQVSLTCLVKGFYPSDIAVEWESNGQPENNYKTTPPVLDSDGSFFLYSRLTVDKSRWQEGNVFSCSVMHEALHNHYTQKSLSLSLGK
light: SYELTQPPSVSVSPGQTARITCSGDALTSKYVAWYQQKSGLAPLLVIYEDTRRPSGIPAKFSGSSSGSVATLTISGAHGDDEADYYCYSTDASGHQRVFGGGTKLTVLSQPKAAPSVTLFPPSSEELQANKATLVCLISDFYPGAVTVAWKADGSPVKAGVETTKPSKQSNNKYAASSYLSLTPEQWKSHRSYSCQVTHEGSTVEKTVAPTECS
notes: pH-dependent anti-C2 antibody from a phage display library; also called WT
- Kd (human C2 L620A): 11.1 nM
- Kd (human C2 R688A): 25.3 nM
- Kd (human C2 N380A): 15.1 nM
- Kd (human C2 K487A): 93 nM
